Results as given in patent publication US20030064496.

Target: GST-MKK4 fusion protein (Upstate Biotechnologies, Inc) [GST: P08515]

Protein | phosphorylation of GST-MKK4 in a kinase reaction with [gamma-32P]-ATP (SDS-PAGE, phosphorimager)
His-tagged hMEKK2 (polyhistidine-hMEKK2 fusion) (protein) HHHHHHMDDQQALNSIMQDLAVLHKASRPALSLQETRKAKSSSPKKQNDVRVKFEHRGEKRILQFPRPVKLEDLRSKAKIAFGQSMDLHYTNNELVIPLTTQDDLDKAVELLDRSIHMKSLKILLVINGSTQATNLEPLPSLEDLDNTVFGAERKKRLSIIGPTSRDRSSPPPGYIPDELHQVARNGSFTSINSEGEFIPESMDQMLDPLSLSSPENSGSGSCPSLDSPLDGESYPKSRMPRAQSYPDNHQEFSDYDNPIFEKFGKGGTYPRRYHVSYHHQEYNDGRKTFPRARRTQGTSLRSPVSFSPTDHSLSTSSGSSIFTPEYDDSRIRRRGSDIDNPTLTVMDISPPSRSPRAPTNWRLGKLLGQGAFGRVYLCYDVDTGRELAVKQVQFDPDSPETSKEVNALECEIQLLKNLLHERIVQYYGCLRDPQEKTLSIFMEYMPGGSIKDQLKAYGALTENVTRKYTRQILEGVHYLHSNMIVHRDIKGANILRDSTGNVKLGDFGASKRLQTICLSGTGMKSVTGTPYWMSPEVISGEGYGRKADIWSVACTVVEMLTEKPPWAEFEAMAAIFKIATQPTNPKLPPHVSDYTRDFLKRIFVEAKLRPSADELLRHMFVHYH | comparable to the activity of purified mouse MEKK2, and significantly above the background levels seen with control extracts
purified mouse MEKK2 (protein) MDDQQALNSIMQDLAVLHKASRPALSLQETRKAKPSSPKKQNDVRVKFEHRGEKRILQVTRPVKLEDLRSKSKIAFGQSMDLHYTNNELVIPLTTQDDLDKAVELLDRSIHMKSLKILLVVNGSTQATNLEPSPSPEDLNNTPLGAERKKRLSVVGPPNRDRSSPPPGYIPDILHQIARNGSFTSINSEGEFIPESMDQMLDPLSLSSPENSGSGSCPSLDSPLDGESYPKSRMPRAQSYPDNHQEFTDYDNPIFEKFGKGGTYPRRYHVSYHHQEYNDGRKTFPRARRTQGTSFRSPVSFSPTDHSLSTSSGSSVFTPEYDDSRIRRRGSDIDNPTLTVTDISPPSRSPRAPTNWRLGKLLGQGAFGRVYLCYDVDTGRELAVKQVQFNPESPETSKEVNALECEIQLLKNLLHERIVQYYGCLRDPQEKTLSIFMELSPGGSIKDQLKAYGALTENVTRKYTRQILEGVHYLHSNMIVHRDIKGANILRDSTGNIKLGDFGASKRLQTICLSGTGMKSVTGTPYWMSPEVISGEGYGRKADIWSVACTVVEMLTEKPPWAEFEAMAAIFKIATQPTNPKLPPHVSDYTRDFLKRIFVEAKLRPSAEELLRHMFVHYH | The ability of extracts containing his-tagged hMEKK2 to phosphorylate GST-MKK4 was comparable to the activity of purified mouse MEKK2
